The values that follow come from PMC3680417, “Phosphorylation of the Leukemic Oncoprotein EVI1 on Serine 196 Modulates DNA Binding, Transcriptional Repression and Transforming Ability”.

For one series, the target named is GST-Evi1 ZF1-7 S196A (mouse, UniProt P14404-1 21-239, S196A). The experiment in a line: EMSA; EMSA as in cited ref. 6; native 5% acrylamide gel; buffer, salt, pH and temperature not stated. Particulars: protein: recombinant; tags: GST (N-terminal, pGEX); label: 5' IRDye.
The target of another series is GST-Evi1 ZF1-7 WT (mouse, UniProt P14404-1 21-239). The description is as above. The following applies: protein: recombinant; tags: GST (N-terminal, pGEX); label: 5' IRDye.
Chain of GST-Evi1 ZF1-7 WT (P14404 211-429): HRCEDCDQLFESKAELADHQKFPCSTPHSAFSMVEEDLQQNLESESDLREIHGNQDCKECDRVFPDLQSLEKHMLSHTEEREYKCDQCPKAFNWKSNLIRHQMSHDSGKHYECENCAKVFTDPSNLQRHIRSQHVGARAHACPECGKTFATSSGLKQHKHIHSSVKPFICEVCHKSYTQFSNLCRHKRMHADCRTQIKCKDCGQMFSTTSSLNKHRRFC

Chain of GST-Evi1 ZF1-7 S196A (P14404 211-429 S386A): as the sequence (P14404 211-429) above, with S176A counted along it

B1: EVI1 ZF1-7 target EMSA probe (dsDNA)
DNA 1: ACCCATGGAGCTTTGAGCCCTGTTATCTTGTCAGGGAAGTGTACCATGGA
DNA 2: TCCATGGTACACTTCCCTGACAAGATAACAGGGCTCAAAGCTCCATGGGT
On to B1, for which the binding result with GST-Evi1 ZF1-7 S196A and with GST-Evi1 ZF1-7 WT was “binds” each time.
